# Laboratory results published in article PMC5021801.
# Tests used:
# [1] = biological target: FLAG-tagged wild-type TgAMA1 on Toxoplasma gondii tachyzoites (Toxoplasma gondii) (UniProt B6KAM0)
# [2] = biological target: hypercleavable mutant form of TgAMA1 (AMA1^L/G) on Toxoplasma gondii tachyzoites (Toxoplasma gondii) (UniProt B6KAM0)
substance,measurement,setting,value
D3 domain of TgRON2 fused to glutathione S-transferase (GST-D3) (domain or fragment),"amount of FLAG-tagged TgAMA1 ectodomain shed into the supernatant, constitutive microneme secretion assay, against GST-treated controls; dose dependent from 0.01 to 1 µM GST-D3, fold decrease at 5 µM",[1],5.7 fold
same,"constitutive cleavage and shedding of AMA1^L/G, microneme secretion assay, saturating (1 µM) GST-D3 against GST; percent inhibition",[2],50%
